# Laboratory results: patent US6699677B1, “Tethered ligands and methods of use” (ChemoCentryx, Inc., priority 1999, dated 2004)
# T1: CCR10 (Homo sapiens, UniProt Q9NPB9)
# T1 construct: Full length CCR10 expression constructs were made in pIRESpuro expression vector; expressed in transfected cells; HEK293-CCR10)
# T1 sequence (Q9NPB9 1-350): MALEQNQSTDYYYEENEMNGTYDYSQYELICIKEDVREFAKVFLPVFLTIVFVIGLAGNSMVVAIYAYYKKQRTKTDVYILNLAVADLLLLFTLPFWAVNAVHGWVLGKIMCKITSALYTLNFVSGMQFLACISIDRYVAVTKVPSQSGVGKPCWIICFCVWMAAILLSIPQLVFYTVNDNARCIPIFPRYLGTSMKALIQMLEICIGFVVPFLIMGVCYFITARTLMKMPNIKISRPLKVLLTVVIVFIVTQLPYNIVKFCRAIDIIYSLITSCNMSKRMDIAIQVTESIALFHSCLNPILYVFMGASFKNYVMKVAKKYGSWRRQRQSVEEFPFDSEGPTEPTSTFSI
# T2: CCR7 (Homo sapiens, UniProt P32248)
# T2 construct: host or cells: mouse myeloma NSO
# T2 sequence (P32248 25-378): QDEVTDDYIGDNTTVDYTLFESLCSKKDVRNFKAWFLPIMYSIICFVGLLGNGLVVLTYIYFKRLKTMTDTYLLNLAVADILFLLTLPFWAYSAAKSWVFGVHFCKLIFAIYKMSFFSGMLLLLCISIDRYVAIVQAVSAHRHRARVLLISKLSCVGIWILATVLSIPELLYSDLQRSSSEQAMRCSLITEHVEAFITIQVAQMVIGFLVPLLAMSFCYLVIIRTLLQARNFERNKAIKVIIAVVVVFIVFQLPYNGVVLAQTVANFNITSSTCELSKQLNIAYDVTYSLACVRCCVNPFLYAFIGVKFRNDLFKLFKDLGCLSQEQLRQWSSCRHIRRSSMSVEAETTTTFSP
# What was measured:
# [1] = target: T3, CCR8 (Homo sapiens, UniProt P51685); experiment: Binding of CCR8-NSO cells to immobilized stalkokines
# T3 construct: host or cells: mouse myeloma NSO
# Method: (§1) In one set of experiments, five 8 well chamber slides (Lab-Tek II, Nalge Nunc International, Rochester, N.Y.), 250 ul of 10 ug/ml anti-his antibody (R&D Systems, Minneapolis, Minn.) in PBS was added to each well and incubated at room temperature overnight (typically 16 hours). Following, the liquid in each well was aspirated and washed once for approximately 5 minutes with 500 ul of PBS. The wells were then “blocked” (blocked for any additional protein binding sites) with the addition of 250 ul of blocking solution (2% fetal bovine serum, 0.5% BSA in PBS) and incubation for 1 hour at room temp (e.g., 20° C.). The liquid in each well was aspirated and 250 ul of supernatant containing the chemokine-stalk-immobilization domain fusion proteins (SDF1a-FRAC, finetaxin-FRAC, CCL27-FRAC, 1309-FRAC, MIP3a-FRAC, ELC-FRAC, SLC-FRAC, MDC-FRAC, TARC-FRAC, or BRAK-FRAC) or the control supernatant was added to two wells. Each slide contained two wells with control supernatant (from mock-transfected cells) and two wells with the positive control SDF1a (which binds the ubiquitous chemokine receptor CXCR4). The four other wells were for experimental samples. The supernatants were incubated for one hour at room temperature (typically 20° C.), then incubated for an additional hour at 37° C. […] The slide was then ready for addition of cells for assay. […]
# [2] = target: T1, CCR10; experiment: Spectrum of ligands that bind to CCR10; format: binding
# Excerpt: (§2) Furthermore ELC-SK mediated adhesion was abolished in the presence of soluble native ELC as a competitor (FIG. 3A, top row). […] Moreover, radiolabeled ELC was used in a traditional homologous competition assay in the presence of increasing concentrations of unlabeled ELC. […] Taken together, the stalkokine-based adhesion and radiolabeled ligand binding/homologous competition assays indicate that CCR10 is a new chemokine receptor that bound a novel compliment of chemokines.
# [3] = target: T2, CCR7; experiment: Binding of CCR7-NSO cells to immobilized stalkokines
# Method: as §1
# [4] = target: T1, CCR10; experiment: Homologous competition binding of radiolabeled chemokine on HEK293-CCR10 cells
# Excerpt: Human, viral and murine recombinant chemokines were obtained from R&D Systems (Minneapolis, Minn.; http://cytokine.rndsystems.com/cyt_cat/cyt_cat.html). ^125I-labeled ELC and TECK were obtained from Amersham. Full length CCR10 expression constructs were made in pIRESpuro expression vector (Clontech, Palo Alto, Calif.) with a FLAG epitope tag and prolactin signal sequence, and used to generated stable transfectants in HEK293 cells. Transient and stable transfections for CCR10 and stalkokines were done using Superfect reagent (Qiagen, Valencia, Calif.) following manufacturer's protocol. Stably-transfected cells were generated by selection in 2 ug/mL puromycin for 7 days, and expression was confirmed by FACS analysis of the FLAG epitope using anti-FLAG M1 (Sigma, St. Louis, Mo.) and 2′ anti-mouse PE conjugate (Coulter Immunotech, Miami, Fla.).
# as §2
# T3 sequence (P51685 whole entry): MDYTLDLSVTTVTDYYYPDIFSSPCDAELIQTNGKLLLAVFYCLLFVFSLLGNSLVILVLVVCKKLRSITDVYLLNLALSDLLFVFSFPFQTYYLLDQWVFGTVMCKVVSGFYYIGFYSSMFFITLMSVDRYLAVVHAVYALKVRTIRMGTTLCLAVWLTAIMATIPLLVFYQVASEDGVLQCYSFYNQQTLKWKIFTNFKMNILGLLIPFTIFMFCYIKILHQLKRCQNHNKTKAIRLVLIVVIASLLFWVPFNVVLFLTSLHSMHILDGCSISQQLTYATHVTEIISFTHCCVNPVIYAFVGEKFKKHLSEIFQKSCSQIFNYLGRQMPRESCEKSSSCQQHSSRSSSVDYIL
Molecule,Binding to Stalkokine form [1],Affinity of binding to CCR10 [2],Binding to Stalkokine form [3],Binding of radiolabeled chemokine in homologous competition with cold chemokine [4]
"I309: stalkokine form of chemokine I309 (protein, left off: small tags and cut ends) KSMQVPFSRCCFSFAEQEIPLRAILCYRNTSSICSNEGLIFKLKRGKEACALDTVGWVQRHRKMLRHCPSKRKEFGGTFEKQIGEVKPRTTPAAGGMDESVVLEPEATGESSSLEPTPSSQEAQRALGTSPELPTGVTGSSGTRLPPTPKAQDGGPVGTELFRVPPVSTAATWQSSAPHQPGPSLWAEAKTSEAPSTQDPSTQASTASSPAPEENAPSEGQRVWGQGQSPRPENSLEREEMGPVPAHTDAFQDWGPGSMAHVSVVPVSSEGTPSREPVASGSWTPKAEEPIHATMDPQRLGVLITPVPDAQA","yes, yes",,,
"SLC: secondary lymphoid-tissue chemokine, soluble recombinant (protein, UniProt O00585 24-134, looked up) C-C motif chemokine 21: SDGGAQDCCLKYSQRKIPAKVVRSYRKQEPSLGCSIPAILFLPRKRSQAELCADPKELWVQQLMQHLDKTPSPQKPAQGCRKDRGASKTGKKGKGSKGCKRTERSQTPKGP",,high affinity,no,
"TECK: thymus expressed chemokine, soluble recombinant (protein) QGVFEDCCLAYHYPIGWAVLRRAWTYRIQEVSGSCNLPAAIFYLPKRHRKVCGNPKSREVQRAMKLLDARNKVFAKLHHNTQTFQAGPHAVKKLSSGNSKLSSSKFSNPISSSKRNVSLLISANSGL",,high affinity,,Nearly identical results
